For one data set, the target named is T1, PilR-His (Lysobacter enzymogenes OH11, UniProt A0A5P2TY02 1-471).
T1 sequence: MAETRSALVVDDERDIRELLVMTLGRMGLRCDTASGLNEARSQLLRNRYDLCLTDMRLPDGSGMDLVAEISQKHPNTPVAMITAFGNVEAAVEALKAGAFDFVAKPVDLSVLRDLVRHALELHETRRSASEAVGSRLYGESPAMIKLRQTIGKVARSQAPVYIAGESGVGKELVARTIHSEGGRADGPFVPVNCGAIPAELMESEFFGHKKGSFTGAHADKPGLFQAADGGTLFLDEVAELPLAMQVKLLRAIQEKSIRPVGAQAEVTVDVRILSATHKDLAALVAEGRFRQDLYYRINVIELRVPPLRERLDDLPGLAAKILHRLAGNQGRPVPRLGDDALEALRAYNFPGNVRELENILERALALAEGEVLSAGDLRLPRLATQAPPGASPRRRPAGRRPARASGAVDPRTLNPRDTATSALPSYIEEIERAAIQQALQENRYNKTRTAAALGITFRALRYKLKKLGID
The experiment in a line: EMSA. For orientation: In EMSA bound probe runs differently from free probe, usually more slowly.

Data set [1] concerns the target LchD^GGDEV-His, soluble cytoplasmic fragment of LchD (Lysobacter enzymogenes OH11). The experiment in a line: MST.

The values that follow come from publication PMC8035640.

B1: PLchD-2b (dsDNA)
DNA 1: CCTGCACCGGAATGCAGCCCCCTTGGGCTATGCTCGGCACAGCAGACTGG
DNA 2: CCAGTCTGCTGTGCCGAGCATAGCCCAAGGGGGCTGCATTCCGGTGCAGG
As for B1, the binding result in the data set with PilR-His is on record as “no binding”.

B2: Clp-glutathione S-transferase (GST) (natural protein)
chain: MSANPVAPLTALRRTNSPLLPDGATIERFLAHCHRRRYPSRTDVFRPGDPASTLYYVVSGSVSIITEEEDGRELVLGYFGPGEFVGELGLFIESDHREVILRTRSTCELAEIGHERLYDLLLTRLSLDAPKLLYAIGAQISRRLLDTSRKAGRLAFLDVTDRIVRALHDLAKEPEAMSHPQGTQLRVSRQELSRLVGCSREMAGRVLKKLQADGKLHARGKTVVLYGTR
The Kd is the concentration at which binding is half-saturated. A higher Kd goes with lower affinity. Consider B2, for which the Kd in data set [1] is 490 nM.

B3: PLchD-2c (dsDNA)
DNA 1: TGACCGGAAGGGGCATGGGGACACCCTGGCGTGGAAGCTGGCGCGGCTGG
DNA 2: CCAGCCGCGCCAGCTTCCACGCCAGGGTGTCCCCATGCCCCTTCCGGTCA
B3: in the data set with PilR-His, the binding result is on record as “no binding”.
